Substrate in this series: O=C(O)CC(=O)C(=O)O
Briefly: purified protein, by the assay type. The following applies: other: recombinant enzyme from Escherichia coli JM109 (pMDH1) (Example 6, Table 4).

Data on one protein can be found in patent US5686294A.

B1: heat-resistant malate dehydrogenase (MAD) of Bacillus stearothermophilus ATCC 12016 gene, produced by Escherichia coli JM109 (pMDH1), amino acid sequence SEQ … (protein)
chain: MAMKRKKISVIGAGFTGATTAFLLAQKELGDVVLVDIPQLENPTKGKALDMLEASPVLGFDANIIGTSDYADTADSDIVVITAGIARKPGMSRDDLVTTNQKIMKQVTKEVVKYSPNCYIIVLTNPVDAMTYTVFKESGFPKNRVIGQSGVLDTARFRTFVAEELNISVKDVTGFVLGGHGDDMVPLVRYSYAGGIPLEKLIPKDRLDAIVERTRKGGGEIVNLLGNGSAYYAPAASLVEMVEAILKDQRRILPAIAYLEGEYGYEGIYLGVPTILGGNGIEKVIELELTEEEKARSPNPSNPLKMSCACWNSGEAKIRALPGFLSHSQ
As usually defined, the Km is the concentration of substrate that gives half-maximal velocity. Take B1: the Km came to 4.3 µM.
